Measured values published in article PMC10074858.
One block for each binder: values may come before it.

Experiments:
[1] = target: alpha-fetoprotein receptor (human (endogenous in tumor cell lines)); assay: plate-reader fluorescence of labeled protein bound to and internalized by cells; 0.5 µM F-ACT-101 (Alexa Fluor 647) with tumor cells at 37 °C for 0.5, 2 and 5 h, stopped on ice, cells washed, sonicated with DMSO, fluorescence read; background subtracted; binding/internalization as ng per million cells; n = 3
[2] = target: alpha-fetoprotein receptor (human (endogenous in tumor cell lines)); assay: flow cytometry on cells; COLO-205 or U937 cells, F-ACT-101 (Alexa Fluor 488) at 1, 3, 10, 30 and 100 µg/mL in cold PBS for 1 h on ice; percent of cells positive

ng F-ACT-101 per million cells (COLO-205, 0.5 h) (ng/million cells) [1]: 6.9 | ng F-ACT-101 per million cells (COLO-205, 2 h) (ng/million cells) [1]: 33.6 | ng F-ACT-101 per million cells (COLO-205, 5 h) (ng/million cells) [1]: 75 | ng F-ACT-101 per million cells (H522, 0.5 h) (ng/million cells) [1]: 55.6 | ng F-ACT-101 per million cells (H522, 2 h) (ng/million cells) [1]: 27.1 | ng F-ACT-101 per million cells (H522, 5 h) (ng/million cells) [1]: 71.3 | ng F-ACT-101 per million cells (MCF-7, 0.5 h) (ng/million cells) [1]: 51 | ng F-ACT-101 per million cells (MCF-7, 2 h) (ng/million cells) [1]: 53.6 | ng F-ACT-101 per million cells (MCF-7, 5 h) (ng/million cells) [1]: 126 | ng F-ACT-101 per million cells (OVCAR-3, 0.5 h) (ng/million cells) [1]: 67 | ng F-ACT-101 per million cells (OVCAR-3, 2 h) (ng/million cells) [1]: 21.2 | ng F-ACT-101 per million cells (OVCAR-3, 5 h) (ng/million cells) [1]: 71 | ng F-ACT-101 per million cells (SKOV-3, 0.5 h) (ng/million cells) [1]: 31.3 | ng F-ACT-101 per million cells (SKOV-3, 2 h) (ng/million cells) [1]: 9.2 | ng F-ACT-101 per million cells (SKOV-3, 5 h) (ng/million cells) [1]: 16 | ng F-ACT-101 per million cells (U937, 0.5 h) (ng/million cells) [1]: 29.5 | ng F-ACT-101 per million cells (U937, 2 h) (ng/million cells) [1]: 67.1 | ng F-ACT-101 per million cells (U937, 5 h) (ng/million cells) [1]: 84.3
B1: Fluorescently labeled ACT-101 (Alexa Fluor 647) (ligand)
chain: RTLHRNEYGIASILDSYQCTAEISLADLATIFFAQFVQEATYKEVSKMVKDALTAIEKPTGDEQSSGCLENQLPAFLEELCHEKEILEKYGHSDCCSQSEEGRHNCFLAHKKPTPASIPLFQVPEPVTSCEAYEEDRETFMNKFIYEIARRHPFLYAPTILLWAARYDKIIPSCCKAENAVECFQTKAATVTKELRESSLLNQHACAVMKNFGTRTFQAITVTKLSQKFTKVQFTEIQKLVLDVAHVHEHCCRGDVLDCLQDGEKIMSYICSQQDTLSNKITECCKLTTLERGQCIIHAENDEKPEGLSPNLNRFLGDRDFNQFSSGEKNIFLASFVHEYSRRHPQLAVSVILRVAKGYQELLEKCFQTENPLECQDKGEEELQKYIQESQALAKRSCGLFQKLGEYYLQNAFLVAYTKKAPQLTSSELMAITRKMAATAATCCQLSEDKLLACGEGAADIIIGHLCIRHEMTPVNPGVGQCCTSSYANRRPCFSSLVVDETYVPPAFSDDKFIFHKDLCQAQGVALQTMKQEFLINLVKQKPQITEEQLEAVIADFSGLLEKCCQGQEQEVCFAEEGQKLISKTRAALGV
modifications: Alexa Fluor 647 label (protein labeling kit); sites not stated

percent of cells positive for binding (COLO-205, at 100 µg/mL) [2]: 90% | percent of cells positive for binding (U937, at 100 µg/mL) [2]: 90%
B2: Fluorescently labeled ACT-101 (Alexa Fluor 488) (ligand)
chain: B1 chain
modifications: Alexa Fluor 488 label (microscale protein labeling kit); sites not stated
